Patent publication US12578329B2, “Reagent kit containing polypeptide for use in detection of intermolecular interactions” (SHIMADZU CORPORATION, priority 2021, dated 2026)

B1: TurboLuc™: known luciferase, about 16 kDa; SEQ ID NO: 74 (protein, listed as Metrisia longa)
chain: MEAEAERGKLPGKKLPLEVLIELEANARKAGCTRGCLICLSKIKCTAKMKKYIPGRCADYGGDKKTGQAGIVGAIVDIPEISGFKEMEPMEQFIAQVDRCADCTTGCLKGLANVKCSDLLKKWLPGRCATFADKIQSEVDNIKGLAGD
B2: picALuc30: SEQ ID NO: 51; amino acids 54 to 175 of ALuc30 wt, without the N terminus and C terminus; 13 kDa luciferase (protein)
chain: KLPGKKLPLEVLKELEANAQKAGCTRGCLICLSHIKCTAKMKKWLPGRCESWEGDKETGQGGIGEAIVDIPEIPGFKELAPMEQFIAQVDLCADCTTGCLKGLANVKCSALLKKWLPSRCAG
modifications: picALuc30
notes: amino acids 54 to 175 of ALuc30 wt, without the N terminus and C terminus; 13 kDa luciferase

Experiments:
[1] = GLuc: when secretion expressed from cells; cited from earlier work
[2] = Emission value of secretion-expressed luciferase in COS-7 culture medium, coelenterazine h substrate; assay type: biochemical; details: Experiment 5
Description: (§1) • (1) COS-7 cells derived from the kidney of African green monkey were inoculated in a 24-well dish, and on the next day, subconfluency was attained. • (2) 25 μL of Opti-MEM (Thermo Fisher Scientific™), 400 ng (2 μL) of the plasmid, and 1 μL of P3000 (Invitrogen™, Waltham, MA) were mixed. • (3) 25 μL of Opti-MEM and 1 μL of lipofectoamine 3000 (Invitrogen™) were mixed. • (4) (2) and (3) were mixed together, followed by incubation at room temperature for 5 minutes. • (5) The mixture was added to the medium of (1). • (6) 500 μL of Dulbecco's modified Eagle's medium was added, followed by culturing the cells at 37° C. for 1 day and then collecting the medium. The medium contained secretion-expressed luciferase. • (7) To 100 μL of the medium, coelenterazine was added as a substrate at a final concentration of 5 μM, followed by measuring the emission value by using Enspire multi-mode plate reader (PerkinElmer™, Waltham, MA).
The emission value was measured in the same manner as in Experiment 2 except that coelenterazine h was used as a substrate in a final concentration of 5 μM. […] The emission value was measured in the same manner as in Experiment 2 except that coelenterazine h was used as a substrate in a final concentration of 25 μM.

[3] = Emission value of secretion-expressed luciferase in COS-7 culture medium, coelenterazine substrate; assay type: biochemical; details: for emission values (rank order): Experiment 5
Description: as §1
By the same manner as in Experiment 2, the emission value was measured.
The emission value was measured in the same manner as in Experiment 2 except that the final concentration of coelenterazine was changed to 0.5 μM. […] The emission value was measured in the same manner as in Experiment 2 except that the final concentration of coelenterazine was changed to 5 μM.

[4] = Stability of protein terminus: Western blot detection of Flag-tag and His-tag in culture supernatant; details: secretion-expressed luciferase in COS-7 culture supernatant; Western blotting
Text: In the same manner as in Experiment 2, the plasmid was transfected into COS-7 cells and culture supernatant was collected. Flag-tag added to the N terminus of each secretion-expressed luciferase and His-tag added to the C terminus thereof were detected by Western blotting (SDS-PAGE, Mini-PROTEAN TGX Gel StainFree 4-15% (Bio-Rad™, Hercules, CA)) (FIG. 17). The antibodies used were Anti 6×Histidine, Monoclonal Antibody (9C11), Peroxidase Conjugated (manufactured by FUJIFILM Wako Pure Chemical Corporation, 1:1000) and Monoclonal ANTI-FLAG (R) M2-Peroxidase (HRP) antibody produced in mouse, clone M2 (manufactured by Sigma-Aldrich™, St. Louis, MO, 1/1000), respectively, and detection was performed with Amesham Imager 680 (Cytiva™, Marlborough, MA).

[5] = Emission value of secretion-expressed luciferase in COS-7 culture medium, furimazine substrate; assay type: biochemical; details: Experiment 5; furimazine in the concentration recommended by the manufacturer
Description: as §1
The emission value was measured in the same manner as in Experiment 2 except that furimazine, which was available from Promega™ as a NanoLuc® substrate, was used as a substrate in the concentration recommended by the manufacturer.

[6] = Thermal stability of picALuc30 purified from Escherichia coli; assay type: physicochemical; details: expressed in Escherichia coli
[7] = Specific activity of picALuc30 expressed in Escherichia coli versus secretion-expressed by COS-7 cells; assay type: biochemical; details: concentrations adjusted by Western blotting
Description: • (1) A DNA sequence coding for picALuc30 was inserted into a pET32 vector to prepare a plasmid. Transformation was carried out into Escherichia coli SHuffle T7 express lysY (New England Biolab). • (2) Escherichia coli from (1) was inoculated into an LB plate (containing […] of ampicillin). • (3) Next day, one colony was taken out, and cultured with shaking overnight at 30° C. in a test tube containing 2 mL of LB medium (containing […] of ampicillin). • (4) 1 mL of (3) was added to 100 mL of LB medium (containing […] of ampicillin), followed by shaking culture at 30° C. in a 500-mL flask until the absorbance OD600 reached about 0.4. • (5) When the absorbance OD600 reached about 0.4, 40 μL of 1-M isopropyl-β-thiogalactopyranoside was added, followed by overnight culture at 16° C. • (6) The bacterial cells were collected, followed by purification of the protein using HisTALON Buffer Set and TALON Metal Affinity Resin (both from Takara Bio Inc.). From 100 mL of the medium, 1.7 mg of picALuc30 was obtained.

[8] = Thermal stability of secretion-expressed picALuc30 (heat treatment, then emission value); assay type: physicochemical
Description: In the same manner as in Experiment 2, the plasmid was transfected into COS-7 cells and the medium was collected. The culture supernatant containing picALuc30 was incubated for 10 minutes at room temperature (25° C.), 40° C., 50° C., 60° C., 70° C., 80° C., or 90° C., and then the emission value was measured. […] (FIG. 22), indicating a sufficient level of practical utility.

[9] = Measurement of specific activity (enzyme concentrations adjusted by Western blot signal); assay type: biochemical
Description: The specific activities of NanoLuc®, ALuc30 wt, and picALuc30 were measured, with their enzyme concentrations adjusted based on the Western blot signal intensity obtained in Experiment 6.

Molecule	emission value (known) [1]	emission values (rank order) ([2]; coelenterazine h 5 μM)	emission values (rank order) ([2]; coelenterazine h 25 μM)	emission values (rank order) ([3]; coelenterazine 0.5 μM)	emission values (rank order) ([3]; coelenterazine 5 μM)	stability of protein termini (Flag-tag and His-tag detection) [4]	emission value [5]	activity after heat treatment ([6]; 10-minute incubation at 60° C.)	activity remained ([6]; 10-minute incubation at 70° C.) [%]	activity remained ([6]; 10-minute incubation at 80° C.) [%]	specific activity, secretion expressed by COS-7 cells versus prepared in Escherichia coli [7]	activity remained ([8]; 10-minute incubation at 50° C.) [%]	activity remained ([8]; 10-minute incubation at 60° C.) [%]	activity remained ([8]; 10-minute incubation at 70° C.) [%]	maximum emission value ([9]; Experiment 7)	specific activity ([9]; coelenterazine or coelenterazine h as substrate)	emission value ([3]; Experiment 2, coelenterazine 5 μM, medium of transfected COS-7 cells)	emission value compared with NanoLuc and TurboLuc ([3]; secretion-expressed, substrate coelenterazine or coelenterazine h in a high concentration (summary of Experiment 5))
B1	relatively high	TurboLuc™=ALuc30 wt>>NanoLuc®>picALuc30>GLuc	picALuc30>>NanoLuc®=TurboLuc™=ALuc30 wt>>GLuc	NanoLuc®>>picALuc30>TurboLuc™>ALuc30 wt>GLuc	ALuc30 wt=picALuc30>NanoLuc®>TurboLuc™>GLuc	N terminus was lost	high emission values	–	–	–	–	–	–	–	–	–	–	–
B2	–	TurboLuc™=ALuc30 wt>>NanoLuc®>picALuc30>GLuc	picALuc30>>NanoLuc®=TurboLuc™=ALuc30 wt>>GLuc	NanoLuc®>>picALuc30>TurboLuc™>ALuc30 wt>GLuc	ALuc30 wt=picALuc30>NanoLuc®>TurboLuc™>GLuc	both termini remaining	low as compared to NanoLuc® and TurboLuc™	lost little activity	≥ 90	≥ 80	approximately the same	≥ 80	≥ 80	≥ 50	same maximum emission value as NanoLuc®	the same	the same as or higher than that of ALuc30 wt	equal to or higher than NanoLuc® and TurboLuc™
